According to US20030219441A1:

Experiments:
[1] = target: Recombinant human truncated Tissue Factor (tTF) (human) (UniProt P13726); assay: cell-based or functional assay
[2] = target: I-A^d MHC Class II antigen on A20 cells (mouse) (UniProt P04228); assay: 125I-labelled Fab' binding to A20 cells
[3] = target: I-A^d MHC Class II antigen on A20 cells (mouse) (UniProt P04228); assay: method not given
[4] = target: Recombinant human truncated Tissue Factor (tTF) (human) (UniProt P13726); assay: 125I-tTF (in molar excess) tethered to A20 cells (I-A^d) through the bispecific antibody, at saturation

Sequence of UniProt P13726 (P13726 33-251): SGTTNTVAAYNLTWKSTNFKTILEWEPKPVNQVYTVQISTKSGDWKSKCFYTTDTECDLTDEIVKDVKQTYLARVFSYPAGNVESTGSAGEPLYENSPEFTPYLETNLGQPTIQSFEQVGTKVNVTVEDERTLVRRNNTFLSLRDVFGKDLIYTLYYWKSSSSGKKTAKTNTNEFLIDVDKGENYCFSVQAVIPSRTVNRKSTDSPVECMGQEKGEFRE
Sequence of UniProt P04228 (P04228 24-256, chain 1 of 2): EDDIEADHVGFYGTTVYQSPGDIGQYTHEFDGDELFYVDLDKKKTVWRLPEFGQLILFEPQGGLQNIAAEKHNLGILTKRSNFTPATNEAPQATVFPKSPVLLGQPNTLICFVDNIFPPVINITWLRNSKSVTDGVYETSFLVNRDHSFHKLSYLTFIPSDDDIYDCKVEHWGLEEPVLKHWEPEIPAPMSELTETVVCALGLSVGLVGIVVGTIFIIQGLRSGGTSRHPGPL
Sequence of UniProt P04228 (P01921 28-265, chain 2 of 2, further chain): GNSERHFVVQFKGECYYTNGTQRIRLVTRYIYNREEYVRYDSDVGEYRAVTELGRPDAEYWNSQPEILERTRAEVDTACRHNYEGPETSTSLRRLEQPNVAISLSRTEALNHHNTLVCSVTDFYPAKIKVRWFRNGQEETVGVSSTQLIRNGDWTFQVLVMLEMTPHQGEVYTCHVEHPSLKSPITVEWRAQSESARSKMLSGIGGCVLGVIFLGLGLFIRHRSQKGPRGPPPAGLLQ

Row | Coagulation time (sec) of mouse plasma added to A20 cells incubated with the reagents [1] | coagulation time of mouse plasma, A20 cells incubated with 21.5 nM bispecific antibody and 69 nM tTF [1] | other results | Substance
1 | 160 s | – | – | 10H10 F(ab')2
2 | 162 s | – | – | 10H10 Fab'
3 | 168 s | – | – | B21-2 F(ab')2
4 | 165 s | – | concentration at which saturation of binding is reached [2]: 21.5 nM | B21-2 Fab′
5 | – | – | fold better affinity than M5/114 [3]: 10 fold | B21-2 antibody
6 | 36 s | 60 s | molecules of tTF bound per A20 cell (molecules per cell) [4]: 310000 | B21-2/10H10 bispecific antibody
7 | 165 s | 140 s | – | B21-2/OX7 bispecific antibody
8 | 154 s | 140 s | – | SFR8/10H10 bispecific antibody
